Laboratory results: article PMC6206164, “Fibroblast Growth Factor Binding Protein 3 (FGFBP3) impacts carbohydrate and lipid metabolism” (Scientific Reports, 2018)

B1: MBP-tagged human recombinant BP3 devoid of its signal peptide (natural protein, UniProt Q8TAT2 27-258, looked up)
chain: RREKGAASNVAEPVPGPTGGSSGRFLSPEQHACSWQLLLPAPEAAAGSELALRCQSPDGARHQCAYRGHPERCAAYAARRAHFWKQVLGGLRKKRRPCHDPAPLQARLCAGKKGHGAELRLVPRASPPARPTVAGFAGESKPRARNRGRTRERASGPAAGTPPPQSAPPKENPSERKTNEGKRKAALVPNEERPMGTGPDPDGLDGNAELTETYCAEKWHSLCNFFVNFWNG
notes: also called FGFBP3

Columns and labels:
[1] = target: T1, Human recombinant FGFR4 Fc Chimera (human, UniProt P22455 22-369); assay: binding to plate-coated receptor detected by western blot; cell-free; FGFR4 Fc chimera coated on MaxiSorp plates; FGF19 (2 μg/ml) ± BP3 or MBP control (1 μg/ml), 2 h room temperature; bound proteins blotted with anti-FGFR4, anti-MBP, anti-FGF19; conditions: both partners purified
T1 construct: Fibroblast growth factor receptor 4 (FGFR4), human, as Fc chimera; Commercial Fc chimeras of this kind hold the extracellular domain; source: bought: R&D Systems

[2] = target: B1; assay: ELISA; competitive binding; increasing excess of KLB or KLa bound to immobilised FGF19 or FGF21 (2.5 μg/ml) for 1 h before BP3 or MBP control (0.15 μg/ml); MaxiSorp plates; conditions: both partners purified

B1: binds [1].

B2: Recombinant human FGF21 (ligand, UniProt Q9NSA1 29-209, looked up)
chain: HPIPDSSPLLQFGGQVRQRYLYTDDAQQTEAHLEIREDGTVGGAADQSPESLLQLKALKPGVIQILGVKTSRFLCQRPDGALYGSLHFDPEACSFRELLLEDGYNVYQSEAHGLPLHLPGNKSPHRDPAPRGPARFLPLPGLPPALPEPPGILAPQPPDVGSSDPLSMVGPSQGRSPSYAS
notes: Fibroblast growth factor 21 (FGF21), human, recombinant; source: bought: R&D Systems
B2: binds [2].
